Substrate: BHET
Conditions: 120 h

| Protein | plate clearing |
| --- | --- |
| unnamed (protein) MSTGTRVPHAGRAATAPVEGPRQRGRKMQHSLSTSRSRKRVTGILASLAVAVGVGIAAGPVAHGADNPHERGPDPSESSIEAVRGSYSISDRNVSSWVSGFGGGTIYYPTTTSDGDFGAVVISPGYTGTESTISWLGPRLASQGFVVLTMATNSIYDQPDSRARQLQAALDYLTDDSPVADRIDPDRLALMGHSMGGGGTLRAVDDNPDIKAAIPMTPWHLKKDWSSVTTPTLIFGAEDDSVARHETHAEPFYESFDRDLPKAYLELDGASHFAPNYSNTTIAKYSISWLKRFVDDDERYTQFLCPGPSTGWFSDVEKYESSCPL | not clears the plate |
| unnamed (protein) MKTKRHRTATTTVPLPKRSRLARLALAAALLLLSFAAQAQVVIFQENFNSGLGQFTASGTVSTSSGGARMQGCYGCTDGAITSSPISTVGFTNLSLSFDRTTTGLDSGEAGIAEYSTNGSTWTVIESTQSTSSGRVTIALPAAAAGQAALRLRFRVNASLSSETYTVDNIQLEGTPGGGPGGNPYQRGPDPTAALLEASTGPFTYATTTVSSTAASGYGGGTIYYPTNTAGPFAAIAVCPGYTATQSSISWWGPRLASHGFVVITIDTNSTSDQPSSRATQLMAALNQLVTFSNTSGHPIYGKVDPNRLGVMGHSMGGGGTLIAARDNPTLKAAIPLAPWNSSTNFSGVTVPTLIVACESDTIAPVSSHALPFYNSIPSSTKKAYLEINNGDHFCVTTGNSYKAILGKYGVAWMKRFLDNDTRYSPFLCGAPHQADLSGSAISEYRDNCPY | clears the plate (z > 3 vs empty vector) |
| unnamed (protein) MKNITIRSTVRAAVAATLAATAVSGFAQTTAPTSASLNATAGPLAVSTSTVTAPRGFGGGTIYYPTTQARYGVIAISPGFTATETSLAWLGRRIATHGFVVITLNTLTTLDQPASRATQLMAALNHVVNSSPAAVKARIDTARLAVAGHSMGGGGALIAARDNPTLKASYSLTPWNTNSSFSTVRVPTMIVGADGDTIAPVGTHARPFYAALPGTTSKAYGELNNGTHFSPNSTNTPIGRYGVAWMKRFLDADTRYSTFLCGAEHTSYATALVFDRYNQNCPY | not clears the plate |
| unnamed (protein) MRPSSSSLHTAVPLRPRSRAMTALIALATTLGLALALLTAAAPPAAAADLLSQGRPATSSSTENTSTPASAAVDGNTGTRWSSTFSDPQWLSVDLGATATISQVVLRWETAYARAFQIQTSTNGTAWTTVHSSTSGTGGVQTLDVNGNGRYVRMLGTQRGTTYGYSLFEFQVYGSGGGTPPGNGIPDPTATSLETANGPLTTANYTVPNPSGYGSGTVTYPTSSGSYPSVVLMPGYQGTQQNLQWLAPRLASWGFVVVNVGTNTLTDDPESRGRQISAAGTQLLALGNAAGNPLSGKVNGTLGAVGHSMGGGGVMAALRDDSRFRAGVPTAPYHPNANFSSVTEPTFFLTCQSDSVAHGNTYAVPWYNSMSQAEKLYIEVPGDHLCPMTGSGNKAKQGKWIVSFLSLWLRADTRFGPFLCGPVRDPDKNNTSLVTRWMDTCAF | not clears the plate |
| unnamed (protein) MKTNRRRRLALAAAALLLSVAAQAQNGSAPPGPDPDPDPNPPESDNPYQRGPDPTAASLEASSGPFAVSTTTVSSASGFGGGTIYYPTNTEGPFAAIAVVPGFVGTESSIDWWGPRLASHGFVVITIDTNSVFDQPDSRATQLMAALDYVISQSNTSSSPISGMVDSNRLGVMGHSMGGGGSLIAARDNPTLKAAIPLAPWNSSTNFSAITVPTLIIACENDTVAPVSSHASPFYNSIPSSTDKAFLEINGGDHFCANSGNSNKDILGKYGVAWMKRFLDNDTRYDPFLCGPNHEADGSAISEYRDTCPY | not clears the plate |
| unnamed (protein) MPMSLASASTLSGRAYSRSMRSRTRRRRARSRRRVPPVSARAETSKGSIGMPSSYGGARRGFSLGHPRGVRRGCVQATRRVRFLDWPRPAASRGAGDPSRGDTMTGTISSRIAMRAVACCIGLFAFTAGSASAQIGPDPTSASLNATAGSFAVSTSRVTLARGFGGGTIYYPTAAGSYGVVAISPGFTATESSIAWLGRRLATHGLVVITMNTNTTLDQPASRATQLMAALNHVVNSASSTVRSRVDSTRLAVAGHSMGGGGALIAAEDNPTLKAALPLTPWNLSTSFTQVRVPTLIVGSDGDTVAPVAAHARPFYASLPATTFKAYAELNAASHFTPNSTNTPIGRYGVTWMKRFVDADTRYSPFLCGAPHTAYATALVFDRYSQNCPY | not clears the plate |
| unnamed (protein) MRKILLSVFTILSLNSYSQCDDVISSSITNPGIYEVATLSESDGVRNGADYYGSTIYYPINTNNFLGSIVIVPGFVSYEFSIQEWGPFLASHGIVCMTIGTNSIFEQPNQRATALLDAMVSLKEENSRNASPLNSKLDIDNIALGGWSMGGGGAQIAAKMDSSIKVVIALCPWLETGLISEEYLNHQAPILFISAEYDGIANASLHATPQYELSSETTPKLIYEVANGGHTVANYPTSGNGEVGLIALSWLKKYLLNEDCYCPILLESPETASMYMTNINCENSNLNAQEIECTEGWSIISTYVNPINTNFSNFIAPVVNNLIIAKDYIGNAYLPEWDYNGIGNIEQGQGYLIKMLNTMSLAVVGEQIIASENSISLNEGWNLFANFNTESTNSDLSFAALVETENVIIIKDYIGNAMLPEWEFNGLGDLQPGRGYQIKVTANCELQY | not clears the plate |
| unnamed (protein) MKKSIFSKLVVSAGALLLSSTLYASGGGSGGGGSVPPVGNNPCGPDPSSSALSRTGSSGPFSVATKNVSSFSASGFGGGTIHYPTNSNCGRMGGIAVVPGYVSYESSIEWWGPRLASWGFVVITINTNSIYDQPNSRADQLSAALDHIIDDSTVGSLVDPDRLGAIGWSMGGGGSLKLATDRARVRAIIPQAPWYSGSYGSMDTPAFMIACENDAIAPTSSHVDDFYRDASGPKMKIEVNNGSHYCANSGYNESLLGKPGIAWMKRYIDGDTRYNQFLCGNESYGSSYEVSDYDYASCP | not clears the plate |
| unnamed (protein) MKSFVKMCVGCVLALVMLAGISSADYRRGPNPSDSMLEARTGPFDFERSTVSRLSAGGYGGGTLFYPTNTNEGPFAGIVVCPGYMESDGQVDWWGPRLASNGFVVFVMQPQNTYMNQPSQRGNQMLDALDDLVSWNNSRNHAIYGLLDPNRLGLMGHSMGGGGTLIAAEDEANNPAVKAAIPLAPYALEKDFSRITCPTMIVACGADMIAPVAQHAMPFYRSLSDSIDKMFIEFAGDSHFCVIDGNMHMPTLGKLGIAWMKVFMDEDARYLTFLNDTNYGATMEVSRFQSNRPYSVPGGGTSGDCQQWTSSNDQHVSAGRAYTQQETVGCDTVTTYYAVGSNMSIGTSGYSSTTLHSSDGGNSYYTGSCP | not clears the plate |
| unnamed (protein) MIHHFSVRALLAAGALLASAAVSAQTNPYERGPAPTTSSLEASRGPFSYQSFTVSRPSGYGAGTVYYPTNAGGPVGAIAIVPGFTARQSSINWWGPRLASHGFVVITIDTNSTLDQPDSRSRQQMAALNQVATLSRTSSSPIYNKVDTSRLGVMGWSMGGGGSLISARDNPSLKAAAPQAPWSSSKNFSSVTVPTLIIACENDSIAPVNQHADPFYDSMSRNPREFLEINGGSHSCANSGNSNQPLLGKKGVAWMKRFIDNDTRYTSFACSNPNSTRVSDFRVAACN | not clears the plate |
| unnamed (protein) MKTSVTNFAKVTLTVATLLASAIASAQYTKGPDPTVAGLERDGSFTVRTTTVSSLAAVGFGKGTIYYPSAAGSYGVIAVSPGFTAYQSSISWIGSRLASHGFVVITIDTNTTSDQPDSRGSQLKAALDKVVSLSKSSSNVLYNKVDASRLAVAGHSMGGGGTLSAARDNPSYKAAVPLAPWHTTKSWPTLTVPTLIIGGEGDTVAGVSSHSIPFYTSISNSTKKAYMELNGEDHFFPQDATQYPLVGKYMISWFKRFVDNDTRYSAFICGAPHQTQIAVASKISDYRSNC | not clears the plate |
| unnamed (protein) MATMPSGTTALLSVTFFCTTPPSALSLKRHRYPSFRFRSPISVFLSRTHDYMQCRAPWGCMYSLGTPRGSVASRRTINEFLVGGVTQMNTKVQGSSASSAPKVGYPAKSLLAAGILLASFAANADVLFQEDFNAGLGQFTSGGDVTVTSSGARMQGCYGCTDGSITSGAISTVGFNTISLTFTRSTTGLDSGEAGIAEFSTNGSTWTTLESVRTASGARTVALPSTAAGQSALRIRFRINASLSSEYYTVDGVRVEGTPDGTPCTDCPPTGETAIGPDPTTATLEATAGSFTVATINVPSSVTGYGGGVIYYPTAAGTYGVVAMCPGYTASASSLAWWGTRLASWGLIVHIIDTNSTGDFPASRATQLIAALDYVKALNTSSTSPLRGKVANREAVSGHSMGGGGTLIAANNNASRTTLRAAFAMTPWSSSPDSFPSIRAATFVLGCESDNVASVSSHAYPFYVSIPSTVKKAYGEINNADHYCPTQSNPYKAQLGKYGVAWMKRHLEGDTRFDPWLCGAPHQQVVSGTFWSRYLSTCPY | not clears the plate |
| unnamed (protein) MRDPPEYGTQTLHYPTDADPPFAAIAIVPGFVSPESSIIEWGPFLASHGIVVLTIGTNSGSDSPEIRSTALLAALETIKSEHARAGSPIEGKIDTTRLAVGGWSMGGGGTLLTITAHPELKAGLAICPWYTNAFAFAGNTVPVIMFAGTADVLAGGMSQGFYDAIPASTPKMLFEIAGADHFYANNPLMPNVQVGLYGLSWLKVFLEGDDRYRQFLLGPPQNASDFRTTVQ | not clears the plate |
| unnamed (protein) MKTTTFKKSALSALTLLFSLSAFSGGGGGDDGNNDQLPAPDTCNSNCGYEIGPNPTLSFLEASQGPLSVSTTNVSSSVDGFGGGTIYYPTNTSQEMAAIAVAPGFTNTQSAIQWWGPILASHGFVVITIDTNGRFDQPESRSRQLDAALSYLISEGNRSSSPISGLVDENRLATMGFSMGGGGTLRSASRNRLSAAVPLAPWNTGGNNFDQIGVPTLIFACENDSTARVNSHASPFYNRIPSSTDKAYLEINNGPHNCANGNNSSNNALLSTYGVSWMKRFLDKDSRYNQFLCGPNHEANSRISEYRDTCNY | not clears the plate |
